Measurements: publication PMC6601556

Columns and labels:
Assay in all cases: SPR
[1] = target: 337_1_C08 variant VH K5T8 / VL 9
[2] = target: 337_1_C08 variant VH K5T8 / VL 6
[3] = target: 337_1_C08 variant VH H5E2 / VL 2
[4] = target: 337_1_C08 variant VH H5E2 / VL 23
[5] = target: 337_1_C08 variant VH K5E3 / VL 61

## Monomeric human PD-1 rCD4 antigen (from UniProt Q15116 25-288) (receptor)
[1]
  Kd: 2.9 nM
[2]
  Kd: 9 nM
[3]
  Kd: 30 nM
[4]
  Kd: 54 nM
[5]
  Kd: 4.8 nM
